What all share (assay): ELISA
What all share (details): both partners purified
A general note: ELISA stands for enzyme-linked immunosorbent assay.

Experiment [1] has as its target T1, recombinant H7N7 HA based on A/Netherlands/219/2003 (Influenza A virus …, UniProt Q6VMK1).
T1 construct: source: bought: Immune Technologies, New York, NY

For experiment [2], the target named is T2, soluble recombinant H7N9 HA based on A/Shanghai/2/2013 (Influenza A virus A/Shanghai/2/2013 …, UniProt R4NN21).
T2 construct: source: bought: Immune Technologies, New York, NY

A further experiment addresses H15N8 HA (Influenza A virus H15N8, strain not …, UniProt Q82565, strain).
The target in experiment [3] is H7N9 HA (A/Shanghai/2/2013) pre-treated with Endoglycosidase H (Influenza A virus A/Shanghai/2/2013 …, UniProt R4NN21).
In experiment [4] the target is H7N9 HA1 based on A/Shanghai/2/2013 (Influenza A virus A/Shanghai/2/2013 …, UniProt R4NN21, strain).

Data on four molecules can be found in article PMC10659534 (Research Square, 2023).

B1: H7.HK3 (antibody, V domains shown)
VH: QVQLVQSGSELKRPGASVKVSCRASGYTFTSYTINWVRQAPGQGLEWMGWINTSTGDPTYAQGFTGRFVFSLDTSVSTAYLEISRLKAEDTAVYYCARAFGLTVVRGGIVGVWGQGTTVTVSS
VL: not shown
notes: also called H7.HK3 mAb
B1: the binding result (in experiment [1]; in experiment [2]; with H15N8 HA; in experiment [3]; in experiment [4]) was “binds” throughout.

B2: H7.HK2 (antibody, V domains shown)
VH: QVQLQGSGPGLLRPSETLSLTCSVSGVSINSYYWSWVRQPPGKALEWIGYIYYSGNTNYNPSLESRVTISVDRSKNQFSLKMTSVTAADTARYFCARQGIFGDYGSDYWGPGTLVTVSS
VL: DIVMTQSPLSLPVTPGEPASISCRSNQSLQHSNGYVHLDWYRQKPGQSPHLLIYLGFNRASGVPDRFSGGGSGTDFTLKISRVEAEDVGVYYCMQGLQTPFTFGPGTTVDLK
notes: also called H7.HK2 mAb; H7.HK2 human IgG1
Regarding B2, the binding result in experiment [1], in experiment [2], in experiment [3] and in experiment [4] was “binds” each time.

B3: H7.HK4 (antibody, V domains shown)
VH: QVQLQESGPGLVKPSETLSLTCTVSGGSVRSASYAWSWIRQPPGKGLEWIGDIYYSGTTNYNPSLKSRVTLSVDTAKNRFSLRLRSVTAADTAVYHCARERYYYGSSGDFDYWGQGTLVTVSS
VL: DIQMTQSPSSLSASVGDRVTITCRASQGIRNYLAWFQQKPGQAPKSLIFAASSLHTGVPSRFSGSGSGTDFTLTISSLQPEDFATYYCQHYNSYPPTFGQGTKLEIK
notes: also called H7.HK4 mAb
For B3, the binding result is “binds” in experiment [1]; “binds” in experiment [2]; “binds” with H15N8 HA; “binds” in experiment [3]; “no binding” in experiment [4].

B4: H7.HK1 (antibody, V domains shown)
VH: QVQLQESGPGLVKPSETLSLTCSVSGGSINSYYWTWIRQPPGKGLEWVGYIYHSGSTSYNPSLKSRITISVAPSKNHFSLELTSMTAADTAVYYCARLGGHGDYGSDYWGQGTLVTVSS
VL: DIVMTQSPVSLPVTPGEPASISCNSSQSLLHSNGYAHLDWYLQKPGQSPKLMIYLGLNRAFGVPDRFSGSGSGTDFTLKISRVEAEDVGVYYCMQALQTPFTFGPGTRVDIK
notes: also called H7.HK1 mAb; H7.HK1 human IgG1
In the case of B4, the binding result in experiment [1], in experiment [2], in experiment [3] and in experiment [4] was “binds” each time.
